Data reported in US6713294B1, “DNA glycosylases and their use” (priority 1996, dated 2004).
Substitutions are numbered along the chain they refer to.

B1: Tyr147Phe: human UDG (UNGΔ84) mutant with Tyr147 replaced by Phe (protein)
chain: MGVFCLGPWGLGRKLRTPGKGPLQLLSRLCGDHLQAIPAKKAPAGQEEPGTPPSSPLSAEQLDRIQRNKAAALLRLAARNVPVGFGESWKKHLSGEFGKPYFIKLMGFVAEERKHYTVYPPPHQVFTWTQMCDIKDVKVVILGQDPFHGPNQAHGLCFSVQRPVPPPPSLENIYKELSTDIEDFVHPGHGDLSGWAKQGVLLLNAVLTVRAHQANSHKERGWEQFTDAVVSWLNQNSNGLVFLLWGSYAQKKGSAIDRKRHHVLQTAHPSPLSVYRGFFGCRHFSKTNELLQKSGKKPIDWKEL
B2: Ser169Ala: human UDG (UNGΔ84) mutant with Ser169 replaced by Ala (protein)
chain: B1 chain with F147Y, S169A
B3: Asn204Gln: human UDG (UNGΔ84) mutant with Asn204 replaced by Gln (protein)
chain: B1 chain with F147Y, N204Q
B4: His268Leu: human UDG (UNGΔ84) mutant with His268 replaced by Leu (protein)
chain: B1 chain with F147Y, H268L
B5: Gln144Leu: human UDG (UNGΔ84) mutant with Gln144 replaced by Leu (protein)
chain: B1 chain with Q144L, F147Y
B6: Asp145Glu: human UDG (UNGΔ84) mutant with Asp145 replaced by Glu (protein)
chain: B1 chain with D145E, F147Y
B7: Asp145Asn: human UDG (UNGΔ84) mutant with Asp145 replaced by Asn (protein)
chain: B1 chain with D145N, F147Y

What follows are molecules tested on [^3H]thymine-labelled DNA (assay: Release of [3H]thymine from ds or ss labelled DNA). Settings: double-stranded thymine DNA, 10 μM, 10 min; 0 = below detection limit.
Format: biochemical
Description: (§1) To test enzymatic substrate specificities, 250 ng purified human “wild type” UDG (UNGΔ84), UNGΔ84Tyr147Ala or UNGΔ84Asn204Asp, were mixed with 200 ng ds- or ss-[^3H]cytosine-labelled DNA (150 mCi/mmol), or ds- or ss-[^3H]thymine-labelled DNA (100 mCi/mmol) in 10 mM NaCl, 20 mM Tris-HCl (pH 7.5), 1 mM EDTA, 1 mM dithiothreitol and 0.5 mg/ml bovine serum albumin (final concentrations) in 20 μl separate reactions. The final concentrations of the [^3H]cytosine-DNA (C) and [^3H]thymine-DNA (T) substrates were 6.5 μM and 10 μM, respectively. Release of radioactivity as a function of time was measured at 37° C. These conditions are later referred to as standard conditions. Substrate synthesis and processing of samples for scintillation counting were as described in Krokan and Wittwer (1981) Nucl. Acids Res., 9: 2599-2613. Single-stranded substrate was generated by boiling double-stranded substrate for 10 min, followed by rapid cooling on ice.
(§2) For measuring release of uracil from double-stranded (U-ds) or single-stranded (U-ss) DNA the various mutant enzymes (prepared as described in Example 1 and by analogous site-directed mutagenesis methods and identical expression and purification methods) were incubated with 200 ng ds- or ss-[^3H]dUMP-labelled DNA (500 mCi/mmol, 2 μM final concentration) in 20 μl separate reactions for 10 min under standard conditions as described in Example 1. For measuring release of [^3H]cytosine or [^3H]thymine, assays were performed as described in Example 1 using an incubation time of 10 min. Uracil inhibition was analysed by adding 5 mM uracil (final concentration) to a standard U-ds assay. 0 activity indicates activity below detection limit (10 pmol per mg protein per min) with 100 ng enzyme and 200 ng DNA substrate at standard conditions.

| Molecule | T-ds, pmol excised per min per mg protein |
| --- | --- |
| B1 | 0 pmol excised per min per mg protein |
| B2 | 0 pmol excised per min per mg protein |
| B3 | 0 pmol excised per min per mg protein |
| B4 | 0 pmol excised per min per mg protein |
| B5 | 0 pmol excised per min per mg protein |
| B6 | 0 pmol excised per min per mg protein |
| B7 | 0 pmol excised per min per mg protein |

Same assay, conditions: single-stranded thymine DNA, 10 μM, 10 min; 0 = below detection limit

| Molecule | T-ss, pmol excised per min per mg protein |
| --- | --- |
| B1 | 0 pmol excised per min per mg protein |
| B2 | 0 pmol excised per min per mg protein |
| B3 | 0 pmol excised per min per mg protein |
| B4 | 0 pmol excised per min per mg protein |
| B5 | 0 pmol excised per min per mg protein |
| B6 | 0 pmol excised per min per mg protein |
| B7 | 0 pmol excised per min per mg protein |

What follows are molecules tested on [^3H]dUMP-labelled DNA (assay: Release of uracil from ds or ss [3H]dUMP-labelled DNA). Settings: double-stranded uracil DNA, 2 μM, 10 min, 37° C.; 0 = below detection limit (10 pmol per mg protein per min).
Format: biochemical
Description: as §1, §2

| Molecule | U-ds, pmol excised per min per mg protein |
| --- | --- |
| B1 | 3.2 × 10^7 pmol excised per min per mg protein |
| B2 | 3.1 × 10^6 pmol excised per min per mg protein |
| B3 | 1.5 × 10^6 pmol excised per min per mg protein |
| B4 | 1.3 × 10^5 pmol excised per min per mg protein |
| B5 | 3.4 × 10^4 pmol excised per min per mg protein |
| B6 | 5.5 × 10^4 pmol excised per min per mg protein |
| B7 | 1.4 × 10^4 pmol excised per min per mg protein |

Same assay, conditions: single-stranded uracil DNA, 2 μM, 10 min, 37° C.; 0 = below detection limit

| Molecule | U-ss, pmol excised per min per mg protein |
| --- | --- |
| B1 | 6.3 × 10^7 pmol excised per min per mg protein |
| B2 | 5.6 × 10^6 pmol excised per min per mg protein |
| B3 | 2.2 × 10^6 pmol excised per min per mg protein |
| B4 | 2.6 × 10^5 pmol excised per min per mg protein |
| B5 | 4.8 × 10^4 pmol excised per min per mg protein |
| B6 | 8.5 × 10^4 pmol excised per min per mg protein |
| B7 | 1.1 × 10^4 pmol excised per min per mg protein |

The molecules below were run on [^3H]cytosine-labelled DNA (assay: Release of [3H]cytosine from ds or ss labelled DNA). Settings: double-stranded cytosine DNA, 6.5 μM, 10 min; 0 = below detection limit.
Format: biochemical
Description: as §1, §2

| Molecule | C-ds, pmol excised per min per mg protein |
| --- | --- |
| B1 | 0 pmol excised per min per mg protein |
| B2 | 0 pmol excised per min per mg protein |
| B3 | 0 pmol excised per min per mg protein |
| B4 | 0 pmol excised per min per mg protein |
| B5 | 0 pmol excised per min per mg protein |
| B6 | 0 pmol excised per min per mg protein |
| B7 | 0 pmol excised per min per mg protein |

Same assay, conditions: single-stranded cytosine DNA, 6.5 μM, 10 min; 0 = below detection limit

| Molecule | C-ss, pmol excised per min per mg protein |
| --- | --- |
| B1 | 0 pmol excised per min per mg protein |
| B2 | 0 pmol excised per min per mg protein |
| B3 | 0 pmol excised per min per mg protein |
| B4 | 0 pmol excised per min per mg protein |
| B5 | 0 pmol excised per min per mg protein |
| B6 | 0 pmol excised per min per mg protein |
| B7 | 0 pmol excised per min per mg protein |

The molecules below were run on [^3H]dUMP-labelled DNA (assay: Uracil inhibition in standard U-ds assay). Settings: 5 mM uracil added to standard U-ds assay.
Format: biochemical
Description: as §2

| Molecule | Inhibition 5 mM Uracil [%] |
| --- | --- |
| B1 | 50 |
| B2 | 80 |
| B3 | 70 |
| B4 | 75 |
| B5 | 25 |
| B6 | 80 |
| B7 | 80 |

What follows are molecules tested on [^3H]dUMP-labelled DNA (assay: Kinetic parameters on uracil substrate). Settings: U-ds substrate.
Format: biochemical
Description: The final concentrations of the [^3H]cytosine-DNA (C) and [^3H]thymine-DNA (T) substrates were 6.5 μM and 10 μM, respectively. Release of radioactivity as a function of time was measured at 37° C. These conditions are later referred to as standard conditions. Substrate synthesis and processing of samples for scintillation counting were as described in Krokan and Wittwer (1981) Nucl. Acids Res., 9: 2599-2613. Single-stranded substrate was generated by boiling double-stranded substrate for 10 min, followed by rapid cooling on ice.
The kinetic parameters were determined using six different substrate concentrations to obtain the Km and Vmax values. Duplicate samples were incubated for 20 min using standard assay buffer conditions and substrates as specified. Km and Vmax were calculated using the computer program Enzpack, version 3.0 after the method of Wilkinson (1961) Biochem. J., 80: 324-332.

| Molecule | Km [µM] |
| --- | --- |
| B1 | 0.16 |
| B3 | 0.4 |

Same assay, conditions: U-ds substrate; calculated from Vmax assuming Mr=25000

| Molecule | Kcat [s⁻¹] |
| --- | --- |
| B1 | 20.42 |
| B3 | 1.1 |

Same assay, conditions: U-ss substrate

| Molecule | Km [µM] |
| --- | --- |
| B1 | 0.1 |
| B3 | 0.23 |

Same assay, conditions: U-ss substrate; calculated from Vmax assuming Mr=25000

| Molecule | Kcat [s⁻¹] |
| --- | --- |
| B1 | 39.5 |
| B3 | 1.48 |
